The record followed here is publication PMC2751797.

Broadly, the Km is the concentration of substrate that gives half-maximal velocity. By kcat/Km is commonly meant the second-order rate constant that governs catalysis at low substrate concentration.

Substrate in the data set: NC(=O)c1cc(N2CC2)c([N+](=O)[O-])cc1[N+](=O)[O-]
Put plainly: purified protein. The conditions noted are these: NADPH 60 μM fixed, 10 mM Tris-HCl pH 7.5, 23 °C. It counts as biochemical, Escherichia coli.

B1: NfsB (His6-NfsB) (Escherichia coli K-12) (protein)
chain: MDIISVALKRHSTKAFDASKKLTPEQAEQIKTLLQYSPSSTNSQPWHFIVASTEEGKARVAKSAAGNYVFNERKMLDASHVVVFCAKTAMDDVWLKLVVDQEDADGRFATPEAKAANDKGRKFFADMHRKDLHDDAEWMAKQVYLNVGNFLLGVAALGLDAVPIEGFDAAILDAEFGLKEKGYTSLVVVPVGHHSVEDFNATLPKSRLPQNITLTEV
On to B1, for which the Michaelis-Menten constant (Km) was 79 ± 22 µM and the kcat/Km came out at 26000 M⁻¹ s⁻¹.
